Test results as given in FireProtDB (doi:10.1016/j.jmb.2011.02.053).

B1: Guanyl-specific ribonuclease Sa, P05798 (parent)
chain: DVSGTVCLSALPPEATDTLNLIASDGPFPYSQDGVVFQNRESVLPTQSYGYYHEYTVITPGARTRGTRRIITGEATQEDYYTGDHYATFSLIDQTC

Variants of: B1
Settings: Kitasatospora aureofaciens; pH 7; Thermal; Fluorescence; MOPS 30mM; transition: 2; reversible: yes; structure 1RGG; whole UniProt chain shown

Variant: DVSGTVCLSALPPEATDTLNLIASDGPFPYSQDGVVFQNRESVLPTQSYGYYHEYTVITPGARTRGTRRVITGEATQEDYYTGDHYATFSLIDQTC
- change of melting temperature, mutant - wild type (higher = more stable): -3.4 °C
- ddG of mutation (higher = less stable): 0.94 kcal/mol
- unfolding enthalpy (calorimetric): 87 kcal/mol

Variant: DVSGTVCLSALPPEATDTLNLIASDGPFPYSQDGVVFQNRESVLPTQSYGYYHEYTVITPGARTRGTRRIITGEATQEDYYTGDHYATFSAIDQTC
- change of melting temperature, mutant - wild type (higher = more stable): -3.2 °C
- ddG of mutation (higher = less stable): 0.84 kcal/mol
- unfolding enthalpy (calorimetric): 91 kcal/mol

Variant: DVSGTVCASALPPEATDTLNLIASDGPFPYSQDGVVFQNRESVLPTQSYGYYHEYTVITPGARTRGTRRIITGEATQEDYYTGDHYATFSLIDQTC
- change of melting temperature, mutant - wild type (higher = more stable): -5 °C
- ddG of mutation (higher = less stable): 1.34 kcal/mol
- unfolding enthalpy (calorimetric): 89 kcal/mol

Variant: DVSGTVCLSALPPEATDTLNLIASDGPFPYSQDGVVFQNRESVLPTQSYGYYHEYTVVTPGARTRGTRRIITGEATQEDYYTGDHYATFSLIDQTC
- change of melting temperature, mutant - wild type (higher = more stable): 0.11 °C
- ddG of mutation (higher = less stable): 0 kcal/mol
- unfolding enthalpy (calorimetric): 89 kcal/mol

Variant: DVSGTVCLSALPPEATDTLNAIASDGPFPYSQDGVVFQNRESVLPTQSYGYYHEYTVITPGARTRGTRRIITGEATQEDYYTGDHYATFSLIDQTC
- change of melting temperature, mutant - wild type (higher = more stable): -1.6 °C
- ddG of mutation (higher = less stable): 0.41 kcal/mol
- unfolding enthalpy (calorimetric): 85 kcal/mol

Variant: DVSGTVCLSALPPEATDTANLIASDGPFPYSQDGVVFQNRESVLPTQSYGYYHEYTVITPGARTRGTRRIITGEATQEDYYTGDHYATFSLIDQTC
- change of melting temperature, mutant - wild type (higher = more stable): -13.8 °C
- ddG of mutation (higher = less stable): 3.65 kcal/mol
- unfolding enthalpy (calorimetric): 73 kcal/mol

Variant: DVSGTVCLSALPPEATDTLNLIASDGPFPYSQDGVVFQNRESVLPTQSYGYYHEYTVITPGARTRGTRRIVTGEATQEDYYTGDHYATFSLIDQTC
- change of melting temperature, mutant - wild type (higher = more stable): -0.3 °C
- ddG of mutation (higher = less stable): 0.13 kcal/mol
- unfolding enthalpy (calorimetric): 80 kcal/mol

Variant: DVSGTVCLSALPPEATDTLNLVASDGPFPYSQDGVVFQNRESVLPTQSYGYYHEYTVITPGARTRGTRRIITGEATQEDYYTGDHYATFSLIDQTC
- change of melting temperature, mutant - wild type (higher = more stable): -5.7 °C
- ddG of mutation (higher = less stable): 1.48 kcal/mol
- unfolding enthalpy (calorimetric): 74 kcal/mol

Variant: DVSGTVCLSALPPEATDTLNLIASDGPFPYSQDGVVFQNRESVLPTQSYGYYHEYTVITPGARTRGTRRIITGEATQEDYYTGDHYATFSLVDQTC
- change of melting temperature, mutant - wild type (higher = more stable): -3.9 °C
- ddG of mutation (higher = less stable): 1 kcal/mol
- unfolding enthalpy (calorimetric): 84 kcal/mol
